Values of other authors, collected in PMC11276120.

Experiments:
[1] = molecular target: PCNA (Saccharomyces cerevisiae) (UniProt P15873); experiment: NMR
[2] = molecular target: PCNA (Homo sapiens) (UniProt P12004)
Sequence of PCNA (Homo sapiens) (P12004 whole entry): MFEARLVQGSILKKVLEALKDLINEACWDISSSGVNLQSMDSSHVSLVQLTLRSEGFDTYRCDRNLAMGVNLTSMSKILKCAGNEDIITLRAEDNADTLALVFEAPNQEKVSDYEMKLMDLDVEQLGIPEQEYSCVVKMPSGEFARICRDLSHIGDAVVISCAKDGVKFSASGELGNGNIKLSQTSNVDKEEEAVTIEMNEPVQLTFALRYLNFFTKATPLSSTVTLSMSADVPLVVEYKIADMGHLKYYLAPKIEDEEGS

Sequence of PCNA (Saccharomyces cerevisiae) (P15873 whole entry): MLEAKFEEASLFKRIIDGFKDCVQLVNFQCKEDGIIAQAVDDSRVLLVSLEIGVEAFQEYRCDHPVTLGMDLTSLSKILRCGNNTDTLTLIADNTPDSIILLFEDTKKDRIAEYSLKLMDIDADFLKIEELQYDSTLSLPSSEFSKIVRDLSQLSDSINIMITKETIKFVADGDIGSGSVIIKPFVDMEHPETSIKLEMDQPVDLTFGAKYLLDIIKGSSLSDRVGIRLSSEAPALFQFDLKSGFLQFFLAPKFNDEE
Sequence of p21WAF1/CIP1 PIP-box (P38936 139-160): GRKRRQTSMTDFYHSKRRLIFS
Sequence of Rev1 BRCT (P12689 158-252): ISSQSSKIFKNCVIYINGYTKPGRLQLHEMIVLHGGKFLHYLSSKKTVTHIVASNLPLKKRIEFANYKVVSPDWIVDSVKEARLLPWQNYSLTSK

Substance: Rev1 BRCT (from UniProt P12689)
- Kd [1]: 79 µM

Substance: p21WAF1/CIP1 PIP-box (from UniProt P38936)
- Kd [2]: 0.08 µM
